Reference: paper PMC3420021, “Crystallographic Analysis of Polypyrimidine Tract-Binding Protein-Raver1 Interactions Involved in Regulation of Alternative Splicing” (Structure(London, England:1993), 2011)

Target: T1, PTB RRM2 (residues 156-285 of PTB) as it stands in the PRI-RRM2 chimeras (UniProt P26599 156-285)
T1 construct: the linker residues had no density; source: E. coli BL21 (DE3), purified as part of the PRI-RRM2 chimeras
Assay: crystal structure; PRI sequence fused as N-terminal extension to PTB 156-285 on one chain; sitting drop, 0.2 M NaI, 0.1 M Bis-Trispropane pH 6.5, 20% PEG 3350; two complexes in the asymmetric unit
Conditions: both partners purified

T1 sequence (P26599 156-285, change not shown): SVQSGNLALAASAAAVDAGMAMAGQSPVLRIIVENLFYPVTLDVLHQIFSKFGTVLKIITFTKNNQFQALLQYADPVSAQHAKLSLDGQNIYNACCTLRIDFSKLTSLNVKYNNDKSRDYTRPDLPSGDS

Row | binding result | Binder
1 | binds | SSEGLLGLGPGP (core GLLGLGP is numbered 1-7; In the crystal it was joined on one chain with m3 (chimera m5); source: E. coli BL21 (DE3), purified as part of the PRI4-RRM2 chimera) [Raver1 PRI4 12-residue sequence as it stands in the PRI4-RRM2 chimera]
2 | binds | PGVSLLGAPPKD (core SLLGAPP is numbered 1-7; In the crystal it was joined on one chain with m3 (chimera m1); source: E. coli BL21 (DE3), purified as part of the PRI3-RRM2 chimera) [Raver1 PRI3 12-residue sequence as it stands in the PRI3-RRM2 chimera]
